Reference: the supplement of paper PMC9170038

Test system: MS2 coat protein
Assay: apparent KD of MS2 coat protein; higher = weaker reporter binding
Settings: Eterna round: R107
Procedure: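 RNA-MaP round R107: designed RNA switches with theophylline, tryptophan, arginine or FMN aptamers are transcribed on-chip within common flanks. They are titrated with SNAP-549-labelled MS2 coat protein in RNA-MaP buffer (100 mM Tris pH 7.5, 80 mM KCl, 4 mM MgCl2), without ligand or with the indicated ligand. Median apparent KD per design.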

[1] = input ligand: theophylline 20 uM
[2] = input ligand: tryptophan 2.4 mM
[3] = input ligand: theophylline 2 mM

Sequence | apparent KD of MS2 coat protein (input ligand: arginine 13.2 mM) [nM] | apparent KD of MS2 coat protein [1] [nM] | apparent KD of MS2 coat protein [2] [nM] | apparent KD of MS2 coat protein (input ligand: none) [nM] | apparent KD of MS2 coat protein [3] [nM]
AGAUGCCACUGUGGAUAGCACGAUGCCGAUACCAGCUAGGAAACUAGCCCUUGGCAGCGGUACAUGAGGAUCACCCAUGUAUCCU [EThA NP+V+V2 #9] | 12.2 | 18.3 | 12.9 |  | 
AAAACAUGAGGAUCACCCAUGUGGUGAGAAGGAGCGUCGGAAAUGACAGGUAGGUCGCUUAUCCGUAAGUAUUAGUGUUAGUACA [SSArg A #1] | 140 | 290 | 335 | 280 | 388
AGUCUUAGUGGAAGGAGCGCAGUCAUAACAUGAGGAUCACCCAUGUCGAGGUGAGGGUCAUUGCAGGUAGGUCGCCAUAAUAGGA [#16 Same State - Arginine B] | 19.3 | 355 | 369 | 156 | 322
CUCCCUUCGGCGGCCGCCACUAACAGUUUAAUGGACUUUCGGGUCCACAUGAGGAUCACCCAUGUUAGGACCGGGCCCUUGCUCU [theeternabot_exclusion_MS2_Trp_B_39] | 8.8 | 17.5 | 10.9 | 9.2 | 10.6
UAACAUGAGGAUCACCCAUGUUUGAAGAAACGAGGACCGGUACGGCCGCCACUCGACGAGUGGAUGAAUAGUGGGCUUGUGUGCU [Same State Trp A GF10] | 11 | 16 |  |  | 13.1
CAUAAUUUAUCCUAUAAAACUAUUAGUGAUACCAGCACCUCAUGAUGCCCUUGGCAGCACUUACAUGAGGAUCACCCAUGUUUUA [JR_NU_SSTheophyA_Sub029] | 99.6 | 223 | 158 |  | 
AAUCUGUCGGGUGAUACCAGCCUCGGCGCAUCUCACGCUGAACAUGAGGAUCACCCAUGUGGCCCUUGGCAGCACAUGACAAAUC [Tivece] | 202 | 709 | 620 |  | 
UGAGUUAGACAAAAGUCUAGCUCUGGUGAAGGAGCGUCCGAAAGGACAGGUAGGUCGCACCACAUGAGCAUCAGCCAUGUUCCUU [ArgAS 23 #OpenEnded #AlternativeMS2] | 17.9 | 26.9 | 16.8 | 17.3 | 17.8
GGACUAACCUGAAGGAGCGGCACGCAGAAACUGCAAAUUCCUCCACACGAGGAUCACCCGUGUCAGGUAGGUCGCAGGUUAGUCG [ArgBX 28] | 18 | 23.3 | 20.3 | 17.1 | 22.9
AUAACUGUAAUAAACCGCAGGCUAGUGGAAGGAGCGCGGAAUAACGCAGGUAGGUCGCCACAAACAUGAGGAUCACCCAUGUGGC [SSAA NP+V+V2 #6] | 16 | 21.6 | 19.6 | 16 | 20.7
UCGUCCUCCGCAAGGAGGAGGAGUUGCGAUACCAGCACGGUAACGUGCCCUUGGCAGCGCACAUGAGGAUCACCCAUGUGGUGUU [#1 Exclusion - Theophylline A Attempt #13 (HarryS)] | 59.3 | 425 | 188 |  | 
ACGUCCGGGUUAAUCGUGGGCAUGGUCGAUACCAGUAUUUUAAUCUACCCUUGGCAGCGACAUGAGGAUCACCCAUGUGCGAUGA [XTheo A #17] | 15.5 | 22.8 | 17 |  | 
ACACAUGAUAGAAGGAGCGCAAUGAACACACAUGAGGAUCACCCAUGUUUUUUUUGUGUUUUGCAGGUAGGUCGCUAACAUGAGG [Same State Arginine B 4] | 11 | 23.6 | 8.32 | 8.66 | 11
UCGUGUAUAUCGGAUACCAGUGAGAACGAUACAUGAGGAUCACCCAUGUGAGUUGAUGUACACCCUUGGCAGCUGUAUAUAUCUA [gghullin] | 18.9 | 27 | 20 |  | 
AACAGGGCUUCCACGAAGCCCUAAGGUGAUACCAGCACAUGUAAGUGCCCUUGGCAGCACGGUACAUGAGGAUCACCCAUGUAGA [Gerara] | 19.9 | 237 | 24.3 |  | 
AUGCAUAGCGGAAGGAGCGCAAUAGAAUGACAUGAGGAUCACCCAUGUGUGUGAUGUGGAUUGCAGGUAGGUCGCCGAGUGGUAU [Exclusion - Arginine B (Freestyle 3)] | 35.9 | 57.5 | 42.8 | 45.1 | 42.7
